Sequences and labels used below:
B1: Ribonuclease, P00648 (parent)
chain: MMKMEGIALKKRLSWISVCLLVLVSAAGMLFSTAAKTETSSHKAHTEAQVINTFDGVADYLQTYHKLPDNYITKSEAQALGWVASKGNLADVAPGKSIGGDIFSNREGKLPGKSGRTWREADINYTSGFRNSDRILYSSDWLIYKTTDHYQTFTKIR

The variants in the data set derive from B1. The conditions noted are these: Bacillus amyloliquefaciens; pH 6.3; 25 °C; Urea; Fluorescence; MES 1.00 M; NaCl 613 mM; reversible: yes; structure 1BNI; whole UniProt chain shown.

Turning to R157A, the “ddG of mutation (higher = less stable)” value was 0.46 kcal/mol and the “denaturant midpoint (higher = more stable)” value (“denaturant midpoint” for short) was determined as 4.37 M.

On to D55A D59A R157A, for which the “ddG of mutation (higher = less stable)” value is -0.11 kcal/mol and the “denaturant midpoint” value amounted to 4.63 M.

On to D55A, for which the “ddG of mutation (higher = less stable)” value worked out at 0.99 kcal/mol and the “denaturant midpoint” value turned out to be 4.12 M.

With D59A, the “ddG of mutation (higher = less stable)” value is 0.34 kcal/mol and the “denaturant midpoint” value was 4.42 M.

Take D55A D59A: the “ddG of mutation (higher = less stable)” value came to 0.89 kcal/mol and the “denaturant midpoint” value was determined as 4.16 M.

Take D55A R157A: the “ddG of mutation (higher = less stable)” value came to 0.47 kcal/mol and the “denaturant midpoint” value was determined as 4.36 M.

The values are drawn from FireProtDB (doi:10.1016/0022-2836(92)90557-z).
